Assay results reported in the Immune Epitope Database (IEDB).
One block for each sequence: values may come before it.

Columns and labels:
[1] = target: HLA-B*18:01; test: IEDB peptide-MHC binding, purified MHC/direct/fluorescence; filed as Kd, often an IC50 or EC50 that approximates it; ≥ and ≤ were set here for values at or beyond the usual limits of such assays; settings: source organism: Ebola virus - Gabon (1994-1997)
[2] = target: HLA-B*48:01; test: as above; settings: source organism: Ebola virus - Gabon (1994-1997)
[3] = target: HLA-B*46:01; test: as above; settings: source organism: Ebola virus - Gabon (1994-1997)
[4] = target: HLA-A*03:01; test: as above; settings: source organism: Ebola virus - Gabon (1994-1997)
[5] = target: HLA-B*15:01; test: as above; settings: source organism: Ebola virus - Gabon (1994-1997)
[6] = target: HLA-A*24:03; test: as above; settings: source organism: Zaire ebolavirus
[7] = target: HLA-B*58:01; test: as above; settings: source organism: Ebola virus - Gabon (1994-1997)
[8] = target: HLA-B*08:01; test: as above; settings: source organism: Ebola virus - Gabon (1994-1997)
[9] = target: HLA-A*02:01; test: as above
[10] = target: HLA-B*44:02; test: as above; settings: source organism: Ebola virus - Gabon (1994-1997)
[11] = target: HLA-A*69:01; test: as above; settings: source organism: Ebola virus - Gabon (1994-1997)
[12] = target: HLA-B*27:05; test: as above; settings: source organism: Ebola virus - Gabon (1994-1997)
[13] = target: HLA-A*31:01; test: as above; settings: source organism: Ebola virus - Gabon (1994-1997)
[14] = target: HLA-A*01:01; test: as above; settings: source organism: Ebola virus - Gabon (1994-1997)
[15] = target: HLA-A*68:02; test: as above; settings: source organism: Zaire ebolavirus
[16] = target: HLA-B*57:01; test: as above; settings: source organism: Ebola virus - Gabon (1994-1997)
[17] = target: HLA-B*40:01; test: as above; settings: source organism: Ebola virus - Gabon (1994-1997)
[18] = target: HLA-A*29:02; test: as above; settings: source organism: Ebola virus - Gabon (1994-1997)
[19] = target: HLA-A*02:12; test: as above; settings: source organism: Zaire ebolavirus
[20] = target: HLA-A*11:01; test: as above; settings: source organism: Ebola virus - Gabon (1994-1997)
[21] = target: HLA-A*02:19; test: as above; settings: source organism: Zaire ebolavirus
[22] = target: HLA-A*26:01; test: IEDB peptide-MHC binding, purified MHC/competitive/fluorescence; filed as Kd, often an IC50 or EC50 that approximates it; ≥ and ≤ were set here for values at or beyond the usual limits of such assays
[23] = target: HLA-B*27:03; test: as above
[24] = target: HLA-B*39:01; test: as above
[25] = target: HLA-B*51:01; test: as above
[26] = target: HLA-B*15:17; test: IEDB peptide-MHC binding, purified MHC/direct/fluorescence; filed as Kd, often an IC50 or EC50 that approximates it; ≥ and ≤ were set here for values at or beyond the usual limits of such assays; settings: source organism: West Nile virus
[27] = target: HLA-A*02:01; test: IEDB peptide-MHC binding, purified MHC/competitive/radioactivity; filed as Kd, often an IC50 or EC50 that approximates it; ≥ and ≤ were set here for values at or beyond the usual limits of such assays
[28] = target: HLA-A*02:17; test: as above
[29] = target: HLA-A*02:01; test: IEDB peptide-MHC binding, purified MHC/competitive/fluorescence; ≥ and ≤ were set here for values at or beyond the usual limits of such assays; settings: source organism: Zaire ebolavirus
[30] = target: HLA-A*11:01; test: as above; settings: source organism: Zaire ebolavirus
[31] = target: HLA-A*03:01; test: IEDB peptide-MHC binding, purified MHC/competitive/fluorescence; filed as Kd, often an IC50 or EC50 that approximates it; ≥ and ≤ were set here for values at or beyond the usual limits of such assays; settings: source organism: Escherichia coli 536
[32] = target: HLA-B*15:17; test: as above; settings: source organism: Homo sapiens
[33] = target: HLA-B*18:01; test: as above; settings: source organism: Homo sapiens
[34] = target: HLA-B*46:01; test: as above; settings: source organism: Homo sapiens
[35] = target: HLA-B*15:01; test: as above; settings: source organism: Homo sapiens
[36] = target: HLA-A*69:01; test: as above; settings: source organism: Homo sapiens
[37] = target: HLA-B*57:01; test: as above; settings: source organism: Homo sapiens
[38] = target: HLA-A*02:06; test: IEDB peptide-MHC binding, purified MHC/competitive/radioactivity; filed as Kd, often an IC50 or EC50 that approximates it; ≥ and ≤ were set here for values at or beyond the usual limits of such assays
[39] = source organism: Zaire ebolavirus
[40] = source organism: Dengue virus 4 Dominica/814669/1981
[41] = source organism: Dengue virus 1 Singapore/S275/1990
[42] = source organism: Dengue virus 3 China/80-2/1980
[43] = source organism: Dengue virus 4 Philippines/H241/1956
[44] = source organism: Dengue virus 2 Jamaica/1409/1983

Sequence: QLSLKMLSL
Kd [1]: ≥ 20 µM
Kd [2]: ≥ 20 µM
Kd [3]: ≥ 20 µM
Kd [4]: ≥ 20 µM
Kd [5]: ≥ 20 µM
Kd [6]: ≥ 20 µM
Kd [7]: ≥ 20 µM
Kd [8]: 0.816 µM
Kd ([9]; source organism: Ebola virus - Gabon (1994-1997)): ≥ 20 µM
Kd [10]: ≥ 20 µM
Kd [11]: ≥ 20 µM
Kd [12]: ≥ 20 µM
Kd [13]: ≥ 20 µM
Kd [14]: ≥ 20 µM
Kd [15]: ≥ 20 µM
Kd [16]: ≥ 20 µM
Kd [17]: ≥ 20 µM
Kd [18]: ≥ 20 µM
Kd [19]: ≥ 20 µM
Kd [20]: ≥ 20 µM
Kd [21]: ≥ 20 µM
Kd [22, 39]: ≥ 20 µM
Kd [23, 39]: ≥ 20 µM
Kd [24, 39]: ≥ 20 µM
Kd [25, 39]: ≥ 20 µM

Sequence: RAWNSGYEW
Kd [26]: 0.0044 µM

Sequence: SMGLITIAV
Kd [27, 40]: 0.00999 µM
Kd [28, 40]: 0.776 µM

Sequence: VLDHILQKT
IC50 [29]: 2.62 µM
IC50 [30]: 55 µM

Kd [31]: 0.0903 µM
Sequence: VLGYSRMLY

Kd ([9]; source organism: Homo sapiens): 0.0075 µM
Kd [32]: ≥ 20 µM
Kd [33]: ≥ 20 µM
Kd [34]: ≥ 20 µM
Kd [35]: ≥ 20 µM
Kd [36]: ≥ 20 µM
Kd ([22]; source organism: Homo sapiens): ≥ 20 µM
Kd ([23]; source organism: Homo sapiens): ≥ 20 µM
Kd [37]: ≥ 20 µM
Kd ([24]; source organism: Homo sapiens): ≥ 20 µM
Kd ([25]; source organism: Homo sapiens): ≥ 20 µM
Sequence: YITDYSNDI

Sequence: YLALMATFKM
Kd [27, 41]: 0.0128 µM
Kd [28, 41]: 0.182 µM

Sequence: YMGEDGCWYG
Kd [27, 42]: 0.211 µM
Kd [28, 42]: 6.04 µM

Sequence: YQGKTVWFV
Kd [27, 43]: 0.00987 µM
Kd [28, 43]: 0.201 µM
Kd [38, 43]: 0.0123 µM

Sequence: YQLAVTIMA
Kd [27, 44]: 0.0423 µM
Kd [28, 44]: 10.8 µM
Kd [38, 44]: 0.0198 µM
